Test results taken from the domain aggregation screens of Martell et al. (2025).

Assay: soluble fraction after stress (log2 fold change); higher = more stays soluble; pooled small domains, quantitative proteomics
Conditions: stress: 50 degC
Outline: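 After stress at 50°C, the amount of each protein still soluble was measured. This was done on pooled custom libraries of small protein domains, using high-throughput quantitative proteomics. The figure given is a base-two log fold change and stands for aggregation propensity, with higher values meaning more protein stays in solution.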

| Sequence | soluble fraction (log2) |
| --- | --- |
| HMEFEIGQEDSKKSVKQFLYNTLRLSHGQVTALKRQERGILLNGERVFVTALLQEGDRLSLLLE | -0.342 |
| HMGVYDLIYLGYGINVEKEELVDQNISIIRRYANIFDPNGDIKGSTNPTYASNTAVLFNEAKFIIDGYD | -3.65 |
| HMANMTAKQINMFGDKLSRDKDFQSYYIAKSGDSREQYAQDIKGKLLDPFYVNAWMPYLEKIGFVPS | 0.00797 |
| HMENSYSVEDLALKAAISVDTIRYYQGLGLISPPQKNGRRAIYGNDHISRLEEIKKLAFEGFSLRQISLL | -0.224 |
| HMIIVMRKGATEAQVNDIVERVRAAGFGVHLSQGEERTIIGAIGGDRAVLADLNLEAAPGVERVTPIS | 0.0417 |
| HMQVVDWSQVDKEDYLLATKRRAVSTGELKFLLLNNLTYDLTQTRFFKGMDASYYYEGYNLYQTGE | 0.122 |
| HMETADREILLREIREIINERVDYNKDITDDEMKELVMNTVFERSRQQYMSIQDKQEIIQAIFNSMR | 0.126 |
| HMDLPREKRIEIGLTYIYGIGLKTSQKILAATGIDPNTRVKDLDETTVSKLREYIDHNYRVEGELRS | -0.504 |
| HMGGQFVKVEVIAQIFGVTVRRVQQLTQEGVVKTTEIPGEGRRYELVPTIKTYIQYLSDKAY | -4.01 |
| HMDMAYEVVKAFHDLQDYKDVKGGKVYHHYDVGDTYPRQGLDPAPDETRIEELLSSGNAQGVPLIAEV | 0.0503 |
| HMNLDYKQFQVFNNIETLNTFTNLLSDNKIDFEVENNSKIFDPSFANNDFEKEYIVKIHPNDFEKVY | 0.064 |
| HMRDISTDTSAWTFQDIKRYYDPQDLLTEKQVGQALSLIKGRNLNPLLNEVYIVAYKKKNGGAEFSLIV | -0.28 |
| HMVANLPFNYKVYAKKGKLYVVISYKDSNGKYKKKWIRTGLDEGTKKKEVNTVADQIAAEYYSSMRLE | -1.54 |
| HMELKYIDYDEALVVYAKTVTASGGGLSGVKDEGGIRKVLDFVQNDLYYPTFVDKLTYLVFGL | 0.103 |
| HMAHLNYQTVDINALIRHSLQLVSQDAQSRGIALQFTPRPELTTISADPDRLNQVLLNLYLNAMQD | -0.334 |
| HMRSFGTVAQARGRWKAFYVGPDKRRHTPGVTFSNPIRAQGWLAQELTLIELGQWTPPAQRREKAEVAS | -2.4 |
| HMATPIAGTKYTLNNTPVYGTEKGPSIGKRSGIYYTWDATVRNGRIRMTNSPARVGVPWQVSFWVEVNKL | -0.533 |
| HMAAEPDQQLIKPASDPVLRTMKIEELMKMSEQVKIQMSKAAKNFDYLEAARLRDEHFALENLIKLRS | 0.108 |
| HMSSDLSNVVKIIDTLKHKKGALLPILHQIQREIGYIPLKTIDTIAKKLQQTPAEIHGVISFYHQFRTS | 0.0942 |
| HMIQTMVVTDLKNGTIFKENGHPFIVLKYEHIKVSRGSAQVRVKMKNLITGQVLEKSWQSTAHVDDT | -2.1 |
| HMDIMLLLYKNIKKRRLEIGMSQEELAQKTGYTSRSSIAKIEKGEVDLQLSKIKLFANALRVSQSELMG | -3.39 |
| HMISDQENDLNLKHLFDTADQNKDGLILESELKMLMTNLEINKETYDTVMKQITPAGMDYKTFSSL | 0.0963 |
| HMELPSDEHLDDISHLARIGHKKGLQEKIIQLEQQGLASAEFIQQLKTLTNNFQFEKIIQWVDSEL | -0.0426 |
| HMDPTHDMHFLVKDQVTGQPLPNMPYRLQLDNGQTLTGRTDALGMTEKISGHSPHIASIEVPY | 0.18 |
| HMGYTLDVAHGVTEDMNFSEAFATAREEVGPGGIFYWHGKPYGTYYENEWNAMDEEDKAEYWDAVGRTTA | -0.149 |
| HMGKVLIYKPNMSVSDVAIRLGISNAEIIKRLMGLGVMTSINQTIDRDTIELVAMDLGFSIEN | -0.656 |
| HMSTSLIEFTIDRNNSIANKMIMDANIPEDILVVMIKRNGDVFVPNGSTKILPGDILVLSGNKLKY | -0.534 |
| HMPKNVEVPNVVGLSLPMAKLRLTQLGLHIVVRDSVWSETGQPNTILDQDPQPGKKIKPESTVYVKVN | -0.0939 |
| HMINKQPKDYEYFLEKWHFTQTEKHQLHNLILKLNIRYPNKDFLKITENLDNGKLVLKKLEERLSKT | -1.05 |
| HMDVSLVEQTQRDILEYISKNNSNAQLPKEQEFVGLLGVSRVVVREALSRLRALGIIETKRKKGTVVVVPE | -0.165 |
